Laboratory results from patent US20140223591A1.

B1: SMI41 ascites IgG (antibody, V domains shown)
VH: QVTLKESGPGILRPSQTLDLTCSFSGFSLSTSGLSVGWIRQPSGKGLEWLAHIWWDDVKYFNPSLKSRLTISKDSSRNQVFLKITSVDTADSATYHCTRGPLGHGFDYWGQGTLVTVSA
VL: DVVMTQTPLSLPVSLGDQAFISCRSSQSLVHSDGNSYLHWYLQKPGQSPKLLIYKVSNRFSGVPDRFSGSGSGTDFTLKISRVEAEDLGLYFCSQTTHVPWTFGGGTKLEIK
B2: SMI41-HEK293T-IgG (antibody, V domains shown)
VH: B1 VH
VL: DVVMTQTPLSLPVSLGDQAFISCRSSQSLVHSDGNSYLHWYLQKPGQSPKLLIYKVSNRFSGVPDRFSGSGSGTDFTLKISRVEAEDLGLYFCSQTTHVPWTFGGGTKLEIKR
B3: HB-9094-HEK293T-IgG (antibody, V domains shown)
VH: QIQLVQSGPELKKPGETVKISCKASGYPFTNYGMNWVKQAPGKGLKWMGWINTYTGEPACADDFRGRFAISLETSARTAYLQINNLINEDTATYFCARTGGGRYNYGMDYWGQGTSVTVSS
VL: QIVLTQSPAIMSASPGEKVTITCSATSSVSYIHWFQQKPGTSPKLWIYSTSNLASGVPVRFSGSGSGTSYSLTISRMEAEDAATYYCQQRSSYPPTFGGGTKLEIKR

What was measured:
[1] = target: Gonadotrophin releasing hormone 1 (GnRH1) (UniProt P01148); experiment: SPR
[2] = target: Gonadotrophin releasing hormone 1 (GnRH1) (UniProt P01148); experiment: SPR, Biacore T200; antibody captured on goat anti-mouse IgG on a CM5 chip, GnRH injected in 2-fold dilutions from 1024 nM
[3] = target: Gonadotrophin releasing hormone 1 (GnRH1) (UniProt P01148); experiment: SPR (Biacore T200): antibody captured on goat anti-mouse IgG immobilized on a CM5 chip, GnRH injected in 2-fold dilutions from 1024 nM

Row | Binder | Kd [1] | koff [1] | kon [1] | Kd [2] | koff [2] | kon [2] | Kd [3]
1 | B1 | 0.819 nM | 0.00467 s⁻¹ | 8.99e+06 M⁻¹ s⁻¹ |  |  |  | 
2 | B2 | 0.592 nM | 0.00282 s⁻¹ | 4.76e+06 M⁻¹ s⁻¹ | 0.592 nM | 0.00282 s⁻¹ | 4.76e+06 M⁻¹ s⁻¹ | 
3 | B3 | 0.918 nM | 0.000249 s⁻¹ | 272000 M⁻¹ s⁻¹ | 0.918 nM | 0.000249 s⁻¹ | 272000 M⁻¹ s⁻¹ | 0.27 nM
